From article PMC12416549 (2024)
Changes are numbered by the printed parent chain. In names and notes the source's numbering stands. Blank lines part the entries; values can stand above or below the binder they belong to.

Biological target: T1, TNFR1 (Homo sapiens, UniProt P19438)
T1 chain: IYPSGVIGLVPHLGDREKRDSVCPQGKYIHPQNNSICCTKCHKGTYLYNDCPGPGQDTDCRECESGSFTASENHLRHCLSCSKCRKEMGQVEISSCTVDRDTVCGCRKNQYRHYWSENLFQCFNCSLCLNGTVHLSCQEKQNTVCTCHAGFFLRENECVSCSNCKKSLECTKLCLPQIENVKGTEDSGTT
Experiment: yeast display SC50

B1: D59Y (designed binder)
chain: MTLQELLREEALRRAEAEAFRYALELLAEKFPEQKEYLLDLAEEIESQIRSLSGVDVEYVRKFLDKEWAWVKELLAEHPAELAEVEAARAARLAELRAEVEAKVAA
apparent Kd (screen): 3 nM

B2: L7Q (designed binder)
chain: B1 chain with L7Q, Y59D
apparent Kd (screen): 8.56 nM

B3: E43D (designed binder)
chain: B1 chain with E43D, Y59D
apparent Kd (screen): 0.79 nM

B4: L26H (designed binder)
chain: B1 chain with L26H, Y59D
apparent Kd (screen): 0.593 nM

B6: L6V (designed binder)
chain: B1 chain with L6V, Y59D
apparent Kd (screen): 2.48 nM

B7: L39H (designed binder)
chain: B1 chain with L39H, Y59D
apparent Kd (screen): 2.48 nM

B8: Q4G (designed binder)
chain: B1 chain with Q4G, Y59D
apparent Kd (screen): 0.49 nM

B9: E10L (designed binder)
chain: B1 chain with E10L, Y59D
apparent Kd (screen): 0.539 nM

B12: S53M (designed binder)
chain: B1 chain with S53M, Y59D
apparent Kd (screen): 1.27 nM

B15: R61W (designed binder)
chain: B1 chain with Y59D, R61W
apparent Kd (screen): 3.63 nM

B16: V60T (designed binder)
chain: B1 chain with Y59D, V60T
apparent Kd (screen): 0.539 nM

B17: E58K (designed binder)
chain: B1 chain with E58K, Y59D
apparent Kd (screen): 0.49 nM

B21: L24D (designed binder)
chain: B1 chain with L24D, Y59D
apparent Kd (screen): 1.86 nM

B22: D56A (designed binder)
chain: B1 chain with D56A, Y59D
apparent Kd (screen): 2.05 nM

B24: T2K (designed binder)
chain: B1 chain with T2K, Y59D
apparent Kd (screen): 0.718 nM

B25: A19I (designed binder)
chain: B1 chain with A19I, Y59D
apparent Kd (screen): 0.956 nM

B27: V55K (designed binder)
chain: B1 chain with V55K, Y59D
apparent Kd (screen): 16.7 nM

B28: Y37A (designed binder)
chain: B1 chain with Y37A, Y59D
apparent Kd (screen): 24.4 nM

B30: E16I (designed binder)
chain: B1 chain with E16I, Y59D
apparent Kd (screen): 0.539 nM

B31: E18D (designed binder)
chain: B1 chain with E18D, Y59D
apparent Kd (screen): 0.718 nM

B36: E36I (designed binder)
chain: B1 chain with E36I, Y59D
apparent Kd (screen): 2.48 nM

B37: S51C (designed binder)
chain: B1 chain with S51C, Y59D
apparent Kd (screen): 1.05 nM

B40: E46V (designed binder)
chain: B1 chain with E46V, Y59D
apparent Kd (screen): 0.49 nM

B41: L24G (designed binder)
chain: B1 chain with L24G, Y59D
apparent Kd (screen): 1.4 nM

B43: L52R (designed binder)
chain: B1 chain with L52R, Y59D
apparent Kd (screen): 11.4 nM

B44: P32T (designed binder)
chain: B1 chain with P32T, Y59D
apparent Kd (screen): 0.539 nM

B48: E33G (designed binder)
chain: B1 chain with E33G, Y59D
apparent Kd (screen): 0.79 nM

B51: R50G (designed binder)
chain: B1 chain with R50G, Y59D
apparent Kd (screen): 1.05 nM

B52: A19D (designed binder)
chain: B1 chain with A19D, Y59D
apparent Kd (screen): 1.16 nM

B53: Y37I (designed binder)
chain: B1 chain with Y37I, Y59D
apparent Kd (screen): 22.2 nM

B58: L12V (designed binder)
chain: B1 chain with L12V, Y59D
apparent Kd (screen): 0.539 nM

More lines, now with the values ahead:

apparent Kd (screen): 0.718 nM
B5: V104I (designed binder)
chain: B1 chain with Y59D, V104I

apparent Kd (screen): 0.718 nM
B10: A106F (designed binder)
chain: B1 chain with Y59D, A106F

apparent Kd (screen): 0.539 nM
B11: A69W (designed binder)
chain: B1 chain with Y59D, A69W

apparent Kd (screen): 1.05 nM
B13: K66H (designed binder)
chain: B1 chain with Y59D, K66H

apparent Kd (screen): 2.73 nM
B14: V85L (designed binder)
chain: B1 chain with Y59D, V85L

apparent Kd (screen): 0.49 nM
B18: A76N (designed binder)
chain: B1 chain with Y59D, A76N

apparent Kd (screen): 29.5 nM
B19: V71D (designed binder)
chain: B1 chain with Y59D, V71D

apparent Kd (screen): 0.49 nM
B20: R92F (designed binder)
chain: B1 chain with Y59D, R92F

apparent Kd (screen): 0.49 nM
B23: A98W (designed binder)
chain: B1 chain with Y59D, A98W

apparent Kd (screen): 0.49 nM
B26: L96C (designed binder)
chain: B1 chain with Y59D, L96C

apparent Kd (screen): 0.446 nM
B29: A87E (designed binder)
chain: B1 chain with Y59D, A87E

apparent Kd (screen): 13.8 nM
B32: V85R (designed binder)
chain: B1 chain with Y59D, V85R

apparent Kd (screen): 0.653 nM
B33: R89I (designed binder)
chain: B1 chain with Y59D, R89I

apparent Kd (screen): 1.27 nM
B34: E67M (designed binder)
chain: B1 chain with Y59D, E67M

apparent Kd (screen): 0.405 nM
B35: D65I (designed binder)
chain: B1 chain with Y59D, D65I

apparent Kd (screen): 0.539 nM
B38: E77A (designed binder)
chain: B1 chain with Y59D, E77A

apparent Kd (screen): 0.539 nM
B39: V71H (designed binder)
chain: B1 chain with Y59D, V71H

apparent Kd (screen): 0.718 nM
B42: A106M (designed binder)
chain: B1 chain with Y59D, A106M

apparent Kd (screen): 12.5 nM
B45: E67F (designed binder)
chain: B1 chain with Y59D, E67F

apparent Kd (screen): 0.653 nM
B46: A90L (designed binder)
chain: B1 chain with Y59D, A90L

apparent Kd (screen): 0.49 nM
B47: E84V (designed binder)
chain: B1 chain with Y59D, E84V

apparent Kd (screen): 0.79 nM
B49: A87F (designed binder)
chain: B1 chain with Y59D, A87F

apparent Kd (screen): 0.49 nM
B50: E99I (designed binder)
chain: B1 chain with Y59D, E99I

apparent Kd (screen): 0.79 nM
B54: A102L (designed binder)
chain: B1 chain with Y59D, A102L

apparent Kd (screen): 0.593 nM
B55: E84W (designed binder)
chain: B1 chain with Y59D, E84W

apparent Kd (screen): 0.718 nM
B56: V100Q (designed binder)
chain: B1 chain with Y59D, V100Q

apparent Kd (screen): 0.539 nM
B57: L96F (designed binder)
chain: B1 chain with Y59D, L96F

apparent Kd (screen): 1.27 nM
B59: A83P (designed binder)
chain: B1 chain with Y59D, A83P
